Results taken from publication PMC11992677.

Tests used:
[1] = test system: METTL3 (METTL3/14 complex);METTL14 (METTL3/14 complex); experiment: MST; settings: MST and nanoDSF: 20 mM Tris pH 7.5, 50 uM ZnCl2, 1% glycerol, 1 mM DTT (MST 100 nM probe; nanoDSF 1 uM protein, 20-80 C). EMSA: 40 mM KCl, 20 mM Tris pH 7.6, 1.
[2] = test system: MacroH2A.1.1 (with H2B);H2B (with MacroH2A.1.1) (;); experiment: MST; settings: poly(ADP-ribose) polymer, no base sequence; MST and nanoDSF: 20 mM Tris pH 7.5, 50 uM ZnCl2, 1% glycerol, 1 mM DTT (MST 100 nM probe; nanoDSF 1 uM protein, 20-80 C). EMSA: 40 mM KCl, 20 mM Tris pH 7.6, 1.
[3] = test system: METTL3 (METTL3/14 complex);METTL14 (METTL3/14 complex); experiment: thermal shift (nanoDSF); settings: MST and nanoDSF: 20 mM Tris pH 7.5, 50 uM ZnCl2, 1% glycerol, 1 mM DTT (MST 100 nM probe; nanoDSF 1 uM protein, 20-80 C). EMSA: 40 mM KCl, 20 mM Tris pH 7.6, 1.
[4] = test system: MacroH2A.1.1 (with H2B);H2B (with MacroH2A.1.1) (;); experiment: thermal shift (nanoDSF); settings: 50 uM ZnCl2; dose-dependent; poly(ADP-ribose) polymer, no base sequence; MST and nanoDSF: 20 mM Tris pH 7.5, 50 uM ZnCl2, 1% glycerol, 1 mM DTT (MST 100 nM probe; nanoDSF 1 uM protein, 20-80 C). EMSA: 40 mM KCl, 20 mM Tris pH 7.6, 1.

## PAR (poly-(ADP-ribose))
[1]; poly(ADP-ribose) polymer, no base sequence
  Kd: 1100 nM
[2]
  Kd: 500 nM
[3]; 50 uM ZnCl2, concentration-dependent, poly(ADP-ribose) polymer, no base sequence
  binding signal (C (delta Tm, maximum)): > 2
[4]
  binding signal (C (delta Tm, maximum)): 3

## DRACH RNA probe (4 tandem repeats of DRACH motif)
[1]
  Kd: 700 nM
[3]
  binding signal: 1 C (delta Tm)
